Here are results for five molecules from paper PMC3585964, “Tissue Inhibitor of Metalloproteinases-3 Peptides Inhibit Angiogenesis and Choroidal Neovascularization in Mice” (PLoS ONE, 2013).

Experiment [1] addresses VEGFR-2 (KDR/Fc chimera) binding to VEGF (Homo sapiens, UniProt P35968). Nature of the experiment: Competitive ELISA, binding of sVEGFR-2/Fc to immobilized VEGF. For orientation: In an ELISA, binding on a coated surface is turned into a signal by an enzyme label.
Procedure: (§1) 96 well EIA/RIA strip plates (COSTAR) were coated with 80 ng/ml recombinant VEGF overnight at 4°C, washed and blocked with blocking buffer (1% BSA and 5% sucrose) overnight at 4°C. Series of dilutions were prepared for recombinant proteins representing WT-TIMP-3, NT2:CT3 and N-T3 in PBS or synthetic peptides corresponding to T3-loop 5, T3-loop 6, T3-N or T3-tail peptides in 0.5 M Tris-HCl (pH 7.5). The diluents were mixed with 50 ng/ml recombinant human VEGFR-2 (KDR/Fc chimera, recombinant human VEGFR-1 (Flt-1)/Fc chimera (R&D Systems, Minneapolis, MN) or control human lgG (Sigma Aldrich, St Louis, MO). The mixtures were then added to the VEGF-coated well in a final volume of 100 µL in PBS and incubated for 2 hours at room temperature. Bound VEGFR-2 was detected by HRP-conjugated anti-human lgG(Fc specific) (1∶1000).
For experiment [2], the system named is angiogenesis; VEGF binding to VEGFR-2. The settings on record: cited from earlier work. An excerpt:
Tissue inhibitors of metalloproteinases (TIMPs) constitute a family of four proteins (TIMP-1, TIMP-2, TIMP-3 and TIMP-4) that are endogenous inhibitors of […] and play a critical role in the maintenance of extracellular matrix (ECM) homeostasis. In general, all four TIMPs are broad-spectrum inhibitors of the MMP family, with some differences in specificity. […] Based on these studies we designed experiments t ... || Sorsby fundus dystrophy (SFD), an autosomal dominant, fully penetrant, degenerative disease of the macula, [25] is manifested by symptoms of night blindness or sudden loss of acuity, usually in the third to fourth decades of life due to submacular neovascularization, [27], [28], [29]. SFD is caused by specific mutations in the tissue inhibitor of metalloproteinases-3 (TIMP-3) gene, [31], [32], [33], [34], [35], [36], [37], most of which introduce an unpaired cysteine at the C-terminus of the protein. We have recently reported that S156C mutation in TI ...

For experiment [3], the system named is VEGFR-1 (Flt-1)/Fc chimera binding to VEGF. In words: Competitive ELISA, binding of sVEGFR-1/Fc to immobilized VEGF. More on the design: species or system human. As to conditions: 50 ng/ml sVEGFR-1 (sFlt-1).
Procedure: as §1
The mark [4] stands for this setting: read-out: IC50, inhibition of VEGF binding to sVEGFR-2/Fc chimera (recombinant proteins), competitive ELISA, 50 ng/ml human VEGFR-2/Fc, plate coated with 80 ng/ml VEGF, 2 h room temperature, proteins in PBS.

Entries after “also recorded” stand apart in the source; their conditions may differ. Like-named read-outs stand apart in the source and are kept apart here. Ends that are not written are not given here. Peptide text beside a SMILES is read from it.

Chain of VEGFR-2 (KDR/Fc chimera) binding to VEGF (P35968 with tags, fused parts or gaps limits assumed): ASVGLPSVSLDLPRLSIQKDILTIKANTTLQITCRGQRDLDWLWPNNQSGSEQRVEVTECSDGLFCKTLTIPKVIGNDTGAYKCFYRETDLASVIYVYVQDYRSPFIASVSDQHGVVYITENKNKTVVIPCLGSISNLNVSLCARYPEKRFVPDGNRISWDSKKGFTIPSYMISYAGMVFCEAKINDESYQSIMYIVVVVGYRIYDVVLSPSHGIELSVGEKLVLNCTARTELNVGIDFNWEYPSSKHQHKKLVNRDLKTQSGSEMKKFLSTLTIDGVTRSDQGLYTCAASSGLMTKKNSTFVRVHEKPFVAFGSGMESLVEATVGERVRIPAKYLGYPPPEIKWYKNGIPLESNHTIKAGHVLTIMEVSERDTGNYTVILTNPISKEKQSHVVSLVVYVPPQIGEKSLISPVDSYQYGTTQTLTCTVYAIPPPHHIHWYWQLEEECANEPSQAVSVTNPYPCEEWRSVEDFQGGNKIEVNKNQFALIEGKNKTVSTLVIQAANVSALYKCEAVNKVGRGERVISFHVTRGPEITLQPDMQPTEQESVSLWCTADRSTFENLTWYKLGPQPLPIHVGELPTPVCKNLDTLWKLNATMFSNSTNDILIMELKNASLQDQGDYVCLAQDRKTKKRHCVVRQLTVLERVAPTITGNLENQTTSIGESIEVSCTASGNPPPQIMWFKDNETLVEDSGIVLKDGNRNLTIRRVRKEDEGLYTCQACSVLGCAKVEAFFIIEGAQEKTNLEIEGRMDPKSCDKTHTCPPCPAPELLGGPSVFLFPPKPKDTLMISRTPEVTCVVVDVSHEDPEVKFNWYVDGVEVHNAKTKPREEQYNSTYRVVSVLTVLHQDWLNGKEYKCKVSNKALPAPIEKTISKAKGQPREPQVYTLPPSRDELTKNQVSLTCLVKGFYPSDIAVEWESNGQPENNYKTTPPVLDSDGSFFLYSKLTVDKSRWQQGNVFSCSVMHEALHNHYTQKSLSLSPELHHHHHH

Molecule `CC[C@H](C)[C@H](NC(=O)[C@H](CS)NC(=O)[C@H](C)NC(=O)[C@H](Cc1ccc(O)cc1)NC(=O)[C@H](Cc1c[nH]cn1)NC(=O)[C@H](CCCCN)NC(=O)[C@H](CO)NC(=O)[C@H](CCC(N)=O)NC(=O)[C@H](Cc1ccc(O)cc1)NC(=O)CNC(=O)[C@@H]1CCCN1C(=O)[C@H](Cc1ccc(O)cc1)NC(=O)CNC(=O)[C@H](Cc1ccccc1)NC(=O)[C@H](CC(N)=O)NC(=O)[C@H](CO)NC(=O)[C@H](CC(C)C)NC(=O)[C@H](CCSC)NC(=O)[C@H](CC(=O)O)NC(=O)[C@@H](NC(=O)[C@H](Cc1c[nH]c2ccccc12)NC(=O)[C@H](CC(C)C)NC(=O)[C@H](CS)NC(=O)[C@H](CCC(=O)O)NC(=O)[C@H](CC(N)=O)NC(=O)[C@@H](N)CCCCN)[C@@H](C)O)C(=O)N[C@@H](CCCNC(=N)N)C(=O)N[C@@H](CCC(N)=O)C(=O)N[C@@H](CCCCN)C(=O)NCC(=O)O` [T3-loop 6] (H-KNECLWTDMLSNFGYPGYQSKHYACIRQKG-OH) yielded an IC50 in experiment [1] of 2000 nM.

Consider GYCSWYRGWAPPDKSIINATDP [T3-tail], for which the IC50 in experiment [1] was found to be 5000 nM.

B1: NT2:CT3: NH2-terminal TIMP-2: COOH-terminal TIMP-3 chimera (residues 1–126 of TIMP-2 and residues 122–188 of TIMP-3) (protein)
chain: CSCSPVHPQQAFCNADVVIRAKAVSEKEVDSGNDIYGNPIKRIQYEIKQIKMFKGPEKDIEFIYTAPSSAVCGVSLDVGGKKEYLIAGKAEGDGKMHITLCDFIVPWDTLSTTQKKSLNHRYQMGCCKIKSCYYLPCFVTSKNECLWTDMLSNFGYPGYQSKHYACIRQKGGYCSWYRGWAPPDKSIINATDP
modifications: Limits are in mature numbering (TIMP-2 offset +26, TIMP-3 offset +23); Methods print TIMP-2 1-127 and Results print 1-126; the Methods limit i
On to B1, for which the IC50 in experiment [1] (setting [4]) stood at 28 nM.

B2: WT-TIMP-3: Full length, recombinant human TIMP-3 purified from stably transfected mouse myeloma cells (protein, UniProt P35625 1-211, looked up)
chain: MTPWLGLIVLLGSWSLGDWGAEACTCSPSHPQDAFCNSDIVIRAKVVGKKLVKEGPFGTLVYTIKQMKMYRGFTKMPHVQYIHTEASESLCGLKLEVNKYQYLLTGRVYDGKMYTGLCNFVERWDQLTLSQRKGLNYRYHLGCNCKIKSCYYLPCFVTSKNECLWTDMLSNFGYPGYQSKHYACIRQKGGYCSWYRGWAPPDKSIINATDP
modifications: full-length
notes: Full length, recombinant human TIMP-3 purified from stably transfected mouse myeloma cells
B2: in experiment [2] (independent of MMP inhibitory activity, ref [8]), the “Blocking of VEGF binding to VEGFR-2 / angiogenesis inhibition (literature)” value is “potent angiogenesis inhibitor”. In addition, the “Inhibition of angiogenesis independent of MMP inhibition (literature)” value in experiment [2] (ref [8], [21], [22]) is on record as “Inhibition of angiogenesis”. The “Effect of recombinant proteins on VEGF binding to VEGFR-1 (in words)” value in experiment [3] is given as “unable to block sVEGFR-1-VEGF complexes; also recorded: neither full length WT-TIMP-3 nor COOH-terminal TIMP-3 blocked the binding of VEGF to VEGFR1”. Besides, the “Effect of recombinant proteins on VEGF-VEGFR-2 complexes (in words)” value in experiment [1] (competitive ELISA, 50 ng/ml sVEGFR-2, proteins in PBS) was “inhibit sVEGFR-2-VEGF complexes in a concentration-dependent manner; also recorded: markedly decreased”. In addition, in experiment [1] (setting [4]), the IC50 was determined as 41 nM.

B3: S156C mutation in TIMP-3: TIMP-3 with the S156C mutation (Sorsby fundus dystrophy) (protein, UniProt P35625 24-211, looked up, variant S156C)
Metalloproteinase inhibitor 3: CTCSPSHPQDAFCNSDIVIRAKVVGKKLVKEGPFGTLVYTIKQMKMYRGFTKMPHVQYIHTEASESLCGLKLEVNKYQYLLTGRVYDGKMYTGLCNFVERWDQLTLSQRKGLNYRYHLGCNCKIKSCYYLPCFVTSKNECLWTDMLSNFGYPGYQCKHYACIRQKGGYCSWYRGWAPPDKSIINATDP
As to B3, the “Effect of TIMP-3 mutation on angiogenesis (literature)” value in experiment [2] (ref [18]) is “induces increased angiogenesis”.
